Assay results as given in publication PMC5072618.

Assays:
[1] = molecular target: IFI16 (gamma-interferon-inducible protein 16) (human (endogenous in HMVEC-d, HFF, BJAB, BCBL-1)) (UniProt Q16666); assay: co-IP; whole cell lysates of KSHV infected HMVEC-d cells electroporated with siBRCA1 (48 h); IP with anti-IFI16 antibody
[2] = molecular target: IFI16 (gamma-interferon-inducible protein 16) (human (endogenous in HMVEC-d, HFF, BJAB, BCBL-1)) (UniProt Q16666); assay: co-IP; whole cell lysates of KSHV infected HMVEC-d cells (4 h; 30 min, 4 and 24 h for the p300 blot); IP with anti-Ran, anti-IFI16, anti-STING or anti-ASC antibodies; cells untreated or electroporated with siC, sicGAS or siASC

UniProt Q16666, sequence (Q16666 whole entry): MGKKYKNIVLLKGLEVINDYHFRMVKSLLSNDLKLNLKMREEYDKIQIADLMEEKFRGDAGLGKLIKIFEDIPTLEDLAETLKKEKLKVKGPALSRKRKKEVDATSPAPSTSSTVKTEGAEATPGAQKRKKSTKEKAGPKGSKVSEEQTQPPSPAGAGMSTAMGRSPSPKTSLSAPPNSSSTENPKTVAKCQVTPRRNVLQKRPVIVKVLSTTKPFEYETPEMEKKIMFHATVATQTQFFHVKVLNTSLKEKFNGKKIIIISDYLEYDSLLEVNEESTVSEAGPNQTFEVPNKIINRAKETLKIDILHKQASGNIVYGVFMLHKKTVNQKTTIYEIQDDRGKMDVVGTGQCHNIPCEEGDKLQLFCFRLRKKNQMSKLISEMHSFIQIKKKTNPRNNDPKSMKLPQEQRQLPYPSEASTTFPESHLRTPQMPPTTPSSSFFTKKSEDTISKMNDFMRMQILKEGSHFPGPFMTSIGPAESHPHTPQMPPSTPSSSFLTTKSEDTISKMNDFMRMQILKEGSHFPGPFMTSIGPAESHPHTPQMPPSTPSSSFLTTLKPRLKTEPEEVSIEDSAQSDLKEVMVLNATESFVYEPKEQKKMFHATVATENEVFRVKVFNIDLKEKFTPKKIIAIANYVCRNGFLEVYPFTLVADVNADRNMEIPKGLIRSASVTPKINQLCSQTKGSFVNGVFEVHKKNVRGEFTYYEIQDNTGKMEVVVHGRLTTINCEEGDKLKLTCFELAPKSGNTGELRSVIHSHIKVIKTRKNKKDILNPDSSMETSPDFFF

In the case of “histone H2B (from UniProt P62807 1-126) (natural protein)”, the reduction of the IFI16-H2B co-precipitate on BRCA1 knockdown [1] is reported as 40% and the reduction of the IFI16-H2B co-precipitate on cGAS knockdown [2] is reported as 25%.
